The nature of the series: amyloid nucleation score (Sup35N fusion, yeast selection) (log enrichment); library NNK3; higher = more nucleation; inactive = no reads after selection. The method, boiled down: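 The nucleation score is the DiMSum log enrichment of output over input reads, centred on the mode score of non-aggregating sequences. Only sequences with 100 or more input reads were scored, using Illumina sequencing of input and output plasmid inserts. Psi-negative yeast expressing Sup35N fused to peptides of 20 random codons were induced 24 hours with 100 μM copper sulfate and grown 7 days at 30°C on medium lacking adenine and uracil.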

± gives the uncertainty stated by the source.

HLYLSSVENLKHLFKGVSVH returned an amyloid nucleation score of -0.381 ± 0.9.

Consider CRYSLWSFSQMGEWMPRCER, for which the amyloid nucleation score result was “inactive”.

In the case of CPCFNLV, the amyloid nucleation score entry was “inactive”.

Consider TLDGLLRASMYSLIYWLVLM, for which the amyloid nucleation score result is “inactive”.

Take MMFARKFAIKSTKRIMVGRT: the amyloid nucleation score result was “inactive”.

For the substance PTIHGVMGVEPMSYSLL, the amyloid nucleation score result was “inactive”.

Turning to LRIERQSAFSCILDM, the amyloid nucleation score result was “inactive”.

Regarding YCKFDS, the amyloid nucleation score stood at 0.705 ± 0.12.

As for YTVMFLGANYSYVVKSMSRS, the amyloid nucleation score entry was “inactive”.

Consider EPQYDSYTGGVSAFVVLKEH, for which the amyloid nucleation score entry is “inactive”.

QHAQGYLRGSTMYFEMM returned an amyloid nucleation score of 0.357 ± 0.25.

As to FFVQSGIIEELYTW, the amyloid nucleation score was determined as 0.173 ± 0.31.

On to PDKVWMYCQHICAVKMSLIC, for which the amyloid nucleation score entry is “inactive”.

Turning to WSGHIGVLRTTSSQQWRVRR, the amyloid nucleation score result was “inactive”.

For CYLGSHSFSAYCGQLFIFSV, the amyloid nucleation score entry was “inactive”.

Regarding HFVLCDHYVR, the amyloid nucleation score result was “inactive”.

On to TFDPKL, for which the amyloid nucleation score entry is “inactive”.

For the substance SFSVTMPMPIYTTLNGPLTN, the amyloid nucleation score result was “inactive”.

Consider KAFCFF, for which the amyloid nucleation score was 1.24 ± 0.12.

For the substance GAFSYEVFPTGRPLFKTGGH, the amyloid nucleation score result is “inactive”.

YCCSGMWVMRSVHSHEIGYL: the amyloid nucleation score stood at 0.966 ± 0.18.

Turning to ASCQSSIVFRTGSSLATLCD, the amyloid nucleation score entry was “inactive”.

With LCHYYLRSKLMAFDMLAFPS, the amyloid nucleation score entry was “inactive”.

Regarding ESKTCVVHLSAKCSLSEERT, the amyloid nucleation score result is “inactive”.

Regarding ASIGIRFVDCLYSVLRRWMF, the amyloid nucleation score entry is “inactive”.

With LLPLFHNVIIGNCLFGCEPP, the amyloid nucleation score amounted to 1.62 ± 0.11.

On to HLKCPRERLT, for which the amyloid nucleation score result is “inactive”.

On to IISCYTNKMIVVTWCYPLRR, for which the amyloid nucleation score came to 0.116 ± 0.19.

In the case of VTVRKFMVSLWSGGPTWDGR, the amyloid nucleation score result was “inactive”.

As to TVLCAC, the amyloid nucleation score result is “inactive”.

WVQHISLWSTMWNGPREAPM: the amyloid nucleation score entry is “inactive”.

In turn, FLNVKIQNHWRPYPFSPEYA returned an amyloid nucleation score of 1.16 ± 0.092.

FFRVYYRSTGGVNM: the amyloid nucleation score result was “inactive”.

Take TPKTLDWAYGYNIVSGKAIN: the amyloid nucleation score result was “inactive”.

Take NVVLSVGMFLLKWS: the amyloid nucleation score stood at 1.31 ± 0.09.

As for FFYYLRSVLHSSYLFRRDVI, the amyloid nucleation score result is “inactive”.

As for FGNLLVLSYDEDCNAATWVR, the amyloid nucleation score entry was “inactive”.

For the substance TGDGTWS, the amyloid nucleation score entry was “inactive”.

Substance PTSKGYVVYKETWVLDRSKM registered an amyloid nucleation score of 1.07 ± 0.17.

With HYNSSSFRVGPCVSLGNHTQ, the amyloid nucleation score entry was “inactive”.

LPGNLYFYVTGTCDNYLTVW: the amyloid nucleation score entry is “inactive”.

As to RASLEYVGKCWWDGPYIEGV, the amyloid nucleation score result was “inactive”.

For KYCGLSRPIAFSPVVKKHLM, the amyloid nucleation score entry is “inactive”.

On to MFLSALDNGLLVNGYVICVC, for which the amyloid nucleation score entry is “inactive”.

Regarding LAAQIMNSLCRLELSQALSR, the amyloid nucleation score result was “inactive”.

For the substance PVRSR, the amyloid nucleation score result is “inactive”.

Turning to KQKWIPYSLCFFTPVR, the amyloid nucleation score result is “inactive”.

Take SCSIVDWSLMIVTYLCWLTN: the amyloid nucleation score result is “inactive”.

Consider YYIHCVWYNADKVYEG, for which the amyloid nucleation score came out at 2.37 ± 0.059.

As to NGTALLKVTLAQYVGIVTLF, the amyloid nucleation score result was “inactive”.

On to WDGLHVCLKSIIGGNSGLEK, for which the amyloid nucleation score entry was “inactive”.

With FGVSNRMWRKSRNLSGSPRA, the amyloid nucleation score result is “inactive”.

As to KPQVPSN, the amyloid nucleation score result is “inactive”.

In the case of GNMLSPI, the amyloid nucleation score result is “inactive”.

Turning to PSVIFRDWFEKMWLDRISVV, the amyloid nucleation score entry was “inactive”.

In the case of FFNRGKVAETGFIWSMVVV, the amyloid nucleation score entry is “inactive”.

Regarding YNLAGVFVIGHGNACATAFR, the amyloid nucleation score is 0.831 ± 0.3.

In the case of DDVTGKMKKIVCVDSHCQLP, the amyloid nucleation score entry is “inactive”.

Take SYSRLWTQMNCTKVVNSYC: the amyloid nucleation score result is “inactive”.

Take VVPIVWHTGSSRVYTEGVLM: the amyloid nucleation score is -0.65 ± 1.3.

HGCYFYYSCTFYC: the amyloid nucleation score worked out at 3.29 ± 0.08.

Regarding IFCAPRAEVSGSYYRGNVSV, the amyloid nucleation score result was “inactive”.

Consider GSSSCY, for which the amyloid nucleation score result is “inactive”.

For VMRGASYFPTELADDDLMPG, the amyloid nucleation score result was “inactive”.

With RRVTFGGMAHSERKRYCLFT, the amyloid nucleation score entry is “inactive”.

Take RGIPDLVIY: the amyloid nucleation score result is “inactive”.

LSCPLVYSTSSFIK: the amyloid nucleation score entry is “inactive”.

The substance QTEFSIGPYIPTEATSRTCS came in with an amyloid nucleation score of -0.451 ± 1.

For the substance KKVISSCFYRVCVSSPAGSV, the amyloid nucleation score result is “inactive”.

As to YNGGIRVTLT, the amyloid nucleation score entry was “inactive”.

With NSISSSRIAVNFAKYGNWDV, the amyloid nucleation score entry was “inactive”.

For MWLPPAVQVLLILKAVIVKL, the amyloid nucleation score result is “inactive”.

As to GPIEPFSMLSM, the amyloid nucleation score was -0.291 ± 0.7.

With SMQKGGK, the amyloid nucleation score entry is “inactive”.

With VYVWSG, the amyloid nucleation score result was “inactive”.

EMNVLCGTYKFQFGVASGVD yielded an amyloid nucleation score of -0.385 ± 0.73.

SVRHSWTMSVFFSDRNALAN: the amyloid nucleation score entry was “inactive”.

Take LVYPQIYVQV: the amyloid nucleation score result was “inactive”.

In the case of VVILWGR, the amyloid nucleation score result is “inactive”.

With AQSEAGDF, the amyloid nucleation score entry was “inactive”.

Regarding ATTDGTVSCVYPRFRLFWCI, the amyloid nucleation score entry was “inactive”.

On to CTFFGKLLSCFVYSGMVQ, for which the amyloid nucleation score result was “inactive”.

SCGTMTEIGVGRVLRFFVIL: the amyloid nucleation score entry is “inactive”.

Turning to FSFQQSWVSY, the amyloid nucleation score result was “inactive”.

For the substance LIWQGCV, the amyloid nucleation score entry was “inactive”.

For the substance IYVARSGARGRGSWSLCKIC, the amyloid nucleation score turned out to be 0.629 ± 0.28.

In the case of NLGRFLFSICCASLFAGCNG, the amyloid nucleation score was -0.245 ± 0.99.

As for CHPLGRCALWWCFVPHGRFA, the amyloid nucleation score result was “inactive”.

For the substance GCKYSATTAHCADKSVPVTG, the amyloid nucleation score entry is “inactive”.

For the substance FCLFDFGILG, the amyloid nucleation score entry was “inactive”.

Turning to RFWLDYEGRNAYWMGITHVW, the amyloid nucleation score result is “inactive”.

As to DLAYIGVFLIMFCFTSVDSM, the amyloid nucleation score was -0.225 ± 0.58.

For IIIFWLFLSGEIDECNNCAV, the amyloid nucleation score entry is “inactive”.

Take NSGAA: the amyloid nucleation score result was “inactive”.

As to YFATRDFAWVFENGSIEGAT, the amyloid nucleation score entry was “inactive”.

In turn, CIYCTSSL gave an amyloid nucleation score of 0.519 ± 0.21.

Take IAMSRSACRYVFECYIYFFF: the amyloid nucleation score entry is “inactive”.

In the case of NDKYWTIHMTSLGQRLIFAE, the amyloid nucleation score came out at 1.25 ± 0.15.

Turning to LDVYTVTGRDW, the amyloid nucleation score entry is “inactive”.

Turning to NVWQFRFANRSCWFRLDIVC, the amyloid nucleation score entry is “inactive”.

With QHTGGVLRRTMFINRVSRRM, the amyloid nucleation score result is “inactive”.

As for MFSYSNSHFSLRLMWRGLRF, the amyloid nucleation score entry was “inactive”.

Substance QVCFQSWDASRSRYRHRLKR returned an amyloid nucleation score of 0.625 ± 0.21.

With QYEWLNYSNLVVYSIKYPEN, the amyloid nucleation score entry is “inactive”.

Consider FYYNVRLRRAGWAYRITWTT, for which the amyloid nucleation score entry was “inactive”.

IAALNFSCRTLSL: the amyloid nucleation score entry was “inactive”.

In the case of KTQDKITGFLTVLWLRKLVP, the amyloid nucleation score entry was “inactive”.

For KSFSR, the amyloid nucleation score entry is “inactive”.

With DISSILVNTWLFDWKLNP, the amyloid nucleation score result was “inactive”.

With EVVSLLTFMLASLLSISVVN, the amyloid nucleation score result was “inactive”.

In the case of FDVVVIYATGVCFLATYYQG, the amyloid nucleation score result is “inactive”.

Turning to FHSAL, the amyloid nucleation score result was “inactive”.

For the substance HMWLFKIQDLMLAHPITGSW, the amyloid nucleation score entry was “inactive”.

Turning to TCIGPGRFFFMMFYV, the amyloid nucleation score entry was “inactive”.

Regarding RHNVRCYCLGLMPNAPVDKL, the amyloid nucleation score entry was “inactive”.

For RLNTMCYSSALASS, the amyloid nucleation score result was “inactive”.

LMKMKRFLQLWTIGDGASKS yielded an amyloid nucleation score of 1.81 ± 0.09.

Consider SSSLVRCHG, for which the amyloid nucleation score entry is “inactive”.

Turning to CQRYQALSNCPYSATWGSDT, the amyloid nucleation score result was “inactive”.

Take TENISFECYMEIY: the amyloid nucleation score entry is “inactive”.

For SGVSFDSIGVSVLQTHGGLR, the amyloid nucleation score result was “inactive”.

Regarding WNLYCAFSPDYRLNIWTLQI, the amyloid nucleation score entry is “inactive”.

Consider GVHWETDEGNVVRL, for which the amyloid nucleation score entry is “inactive”.

In the case of GNALSIEVDGSIK, the amyloid nucleation score entry was “inactive”.

For IMPRPIKSRLNKNFLWAVVC, the amyloid nucleation score result is “inactive”.

Consider NSVPRGMAFFLNAFFSLIYY, for which the amyloid nucleation score result was “inactive”.

NFSMMPTMLRRVWIGMCSSM: the amyloid nucleation score entry is “inactive”.

For the substance CVTCLARLHDGPEGIVHLCT, the amyloid nucleation score entry was “inactive”.

Consider TIIRLIFIWAFFGSGICGRV, for which the amyloid nucleation score entry is “inactive”.

With LSVDRL, the amyloid nucleation score was -0.632 ± 0.9.

Regarding NDCLFNKILAVRSFTLLAGK, the amyloid nucleation score result was “inactive”.

For the origin of these results see the supplement of paper PMC12042874.
